Results reported in article PMC5777261 (The Journal of Biological Chemistry, 2017).

Experiments:
Experiment in all cases: radioligand binding; HEK293 cells expressing ACKR3-YFP or mutants, pretreated 5 min at 37 °C with 100 μM phenylarsine oxide; 50 pM 125I-CXCL12 tracer in 50 mM HEPES pH 7.4, 5 mM MgCl2, 1 mM CaCl2, 0.2% BSA, with or without unlabeled CXCL12 or CXCL11, 30 min at 37 °C; bound label counted in a γ counter; IC50 taken as proxy for ligand affinity
Details in all cases: one partner purified
ACKR3 N127D-YFP = target: T1, ACKR3 N127D-YFP (UniProt P25106 1-362, N127D)
T1 construct: ACKR3 (CXCR7) with N127D (Ballesteros-Weinstein 3.35), made by PCR in ACKR3-YFP; also called N127^3.35D; source: HEK293, transiently transfected (polyethyleneimine), on or in cells; not shown: YFP, C-terminal, kept
T1 sequence (P25106 whole entry N127D): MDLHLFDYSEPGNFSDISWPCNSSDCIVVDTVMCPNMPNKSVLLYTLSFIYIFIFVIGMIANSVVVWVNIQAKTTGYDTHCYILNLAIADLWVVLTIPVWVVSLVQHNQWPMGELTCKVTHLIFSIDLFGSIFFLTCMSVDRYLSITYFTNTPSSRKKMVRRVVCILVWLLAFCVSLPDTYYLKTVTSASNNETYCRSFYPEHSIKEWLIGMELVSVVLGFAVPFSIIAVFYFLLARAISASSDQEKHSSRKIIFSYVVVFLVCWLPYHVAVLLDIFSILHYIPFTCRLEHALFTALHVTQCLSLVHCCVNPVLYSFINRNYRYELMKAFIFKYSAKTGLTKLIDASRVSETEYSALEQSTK

[1] = target: T2, ACKR3-YFP (wildtype ACKR3 fused C-terminally to YFP) (UniProt P25106 1-362)
T2 construct: atypical chemokine receptor 3 (ACKR3, also known as CXCR7); also called CXCR7; receptor-YFP fusion; source: HEK293, transiently transfected (polyethyleneimine), on or in cells; not shown: YFP, C-terminal, kept
T2 sequence (P25106 whole entry, the tested form may be a part): as the sequence (P25106 whole entry N127D) above, with D127N counted along it

ACKR3 Y143A-YFP = target: T3, ACKR3 Y143A-YFP (UniProt P25106 1-362, Y143A)
T3 construct: ACKR3 (CXCR7) with Y143A (Ballesteros-Weinstein 3.51), made by PCR in ACKR3-YFP; also called Y143^3.51A; source: HEK293, transiently transfected (polyethyleneimine), on or in cells; not shown: YFP, C-terminal, kept
T3 sequence (P25106 whole entry Y143A): as the sequence (P25106 whole entry N127D) above, with D127N, Y143A counted along it

ACKR3 N127S-YFP = target: T4, ACKR3 N127S-YFP (UniProt P25106 1-362, N127S)
T4 construct: ACKR3 (CXCR7) with N127S (Ballesteros-Weinstein 3.35), made by PCR in ACKR3-YFP; also called N127^3.35S; source: HEK293, transiently transfected (polyethyleneimine), on or in cells; not shown: YFP, C-terminal, kept
T4 sequence (P25106 whole entry N127S): as the sequence (P25106 whole entry N127D) above, with D127S counted along it

ACKR3 N127K-YFP = target: T5, ACKR3 N127K-YFP (UniProt P25106 1-362, N127K)
T5 construct: ACKR3 (CXCR7) with N127K (Ballesteros-Weinstein 3.35), made by PCR in ACKR3-YFP; also called N127^3.35K; source: HEK293, transiently transfected (polyethyleneimine), on or in cells; not shown: YFP, C-terminal, kept
T5 sequence (P25106 whole entry N127K): as the sequence (P25106 whole entry N127D) above, with D127K counted along it

ACKR3 R142A-YFP = target: T6, ACKR3 R142A-YFP (UniProt P25106 1-362, R142A)
T6 construct: ACKR3 (CXCR7) with R142A (Ballesteros-Weinstein 3.50), made by PCR in ACKR3-YFP; also called R142^3.50A; ACKR3 R142^3.50A; source: HEK293, transiently transfected (polyethyleneimine), on or in cells; not shown: YFP, C-terminal, kept
T6 sequence (P25106 whole entry R142A): as the sequence (P25106 whole entry N127D) above, with D127N, R142A counted along it

ACKR3 D141N-YFP = target: T7, ACKR3 D141N-YFP (UniProt P25106 1-362, D141N)
T7 construct: ACKR3 (CXCR7) with D141N (Ballesteros-Weinstein 3.49), made by PCR in ACKR3-YFP; also called D141^3.49N; source: HEK293, transiently transfected (polyethyleneimine), on or in cells; not shown: YFP, C-terminal, kept
T7 sequence (P25106 whole entry D141N): as the sequence (P25106 whole entry N127D) above, with D127N, D141N counted along it

ACKR3 Y315A-YFP = target: T8, ACKR3 Y315A-YFP (UniProt P25106 1-362, Y315A)
T8 construct: ACKR3 (CXCR7) with Y315A (Ballesteros-Weinstein 7.53), made by PCR in ACKR3-YFP; also called Y315^7.53A; source: HEK293, transiently transfected (polyethyleneimine), on or in cells; not shown: YFP, C-terminal, kept
T8 sequence (P25106 whole entry Y315A): as the sequence (P25106 whole entry N127D) above, with D127N, Y315A counted along it

ACKR3 D90N-YFP = target: T9, ACKR3 D90N-YFP (UniProt P25106 1-362, D90N)
T9 construct: ACKR3 (CXCR7) with D90N (Ballesteros-Weinstein 2.50), made by PCR in ACKR3-YFP; also called D90^2.50N; source: HEK293, transiently transfected (polyethyleneimine), on or in cells; not shown: YFP, C-terminal, kept
T9 sequence (P25106 whole entry D90N): as the sequence (P25106 whole entry N127D) above, with D90N, D127N counted along it

- IC50 (ACKR3 N127D-YFP): 6.6 nM
- Log IC50 (ACKR3 N127D-YFP): -8
- IC50 [1]: 39.1 nM
- Log IC50 [1]: -7.4
- IC50 (ACKR3 Y143A-YFP): 15.4 nM
- Log IC50 (ACKR3 Y143A-YFP): -7.8
- IC50 (ACKR3 N127S-YFP): 3.7 nM
- Log IC50 (ACKR3 N127S-YFP): -8.5
- IC50 (ACKR3 N127K-YFP): 11 nM
- Log IC50 (ACKR3 N127K-YFP): -7.9
- IC50 (ACKR3 R142A-YFP): 44.8 nM
- Log IC50 (ACKR3 R142A-YFP): -7.4
- IC50 (ACKR3 D141N-YFP): 4.8 nM
- Log IC50 (ACKR3 D141N-YFP): -8.3
- IC50 (ACKR3 Y315A-YFP): 19.1 nM
- Log IC50 (ACKR3 Y315A-YFP): -7.7
- IC50 (ACKR3 D90N-YFP): 35.9 nM
- Log IC50 (ACKR3 D90N-YFP): -7.5
B1: CXCL11 (unlabeled recombinant chemokine) (ligand, human, UniProt O14625 22-94, looked up)
chain: FPMFKRGRCLCIGPGVKAVKVADIEKASIMYPSNNCDKIEVIITLKENKGQRCLNPKSKQARLIIKKVERKNF
notes: chemokine CXCL11 (I-TAC); called human CXCL11 in the text on scavenging by MEFs; also called I-TAC; unlabeled CXCL11; source: recombinant; gift from Amanda Nevins and Brian Volkman or from PeproTech Inc
